We go through one protein from US20040171050A1 (PHARMACIA AND UPJOHN, published 2004).

This data set concerns the molecule itself. The data set can be described thus: gel filtration (Superose 200); dynamic light scattering with MgCl2 also gave a monodisperse, dimeric sample; homodimer self-association. (In gel filtration, larger molecules generally elute earlier.)

B1: recombinant S. aureus thymidylate kinase (with polyhistidine [his6] sequence tag) (enzyme)
chain: MGSAFITFEGPEGSGKTTVINEVYHRLVKDYDVIMTREPGGVPTGEEIRKIVLEGNDMDIRTEAMLFAASRREHLVLKVIPALKEGKVVLCDRYIDSSLAYQGYARGIGVEEVRALNEFAINGLYPDLTIYLNVSAEVGRERIIKNSRDQNRLDQEDLKFHEKVIEGYQEIIHNESQRFKSVNADQPLENVVEDTYQTIIKYLEKIRSHHHHHH
notes: Expressed in E. coli with a His6 tag; The crystals used for the structure were of the selenomethionine analogue (methionines replaced by selenomethionine); Gel filtration and light scattering appear to have used the native protein; also called S. aureus TMK; T. kinase
Take B1: the binding result is “binds”.
